Source: paper PMC4038756 (Theranostics, 2014)
Several values for one entry are separate records, joined by “and”; a condition that tells them apart may be missing. Identical values can stand only once.

What was measured:
Assay type in all cases: in vivo, NOD/SCID mice
[1] = Small animal PET/CT imaging, H2009 tumor bearing mice; details: NOD/SCID, mouse, iv, total radioactivity
[2] = test system: H2009 (αvβ6^+) xenografts; assay: as above; details: for Tumor uptake: quantitative PET, mean ± s.d.; for Tumor uptake / Tumor/Lung: n = 3; for Tumor/Lung: ratio of PET uptakes
[3] = Small animal PET/CT imaging, H460 tumor bearing mice; details: NOD/SCID, mouse, iv, total radioactivity
[4] = test system: H460 (αvβ6^-) xenografts; assay: as above; details: H460 tumor bearing mice, quantitative PET, mean ± s.d., n = 3
[5] = H2009 tumor bearing mice, 1 h p.i.
[6] = H2009 tumor bearing mice, 4 h p.i.
[7] = H2009 tumor bearing mice, 24 h p.i.

## CC(C)C[C@H](NC(=O)[C@H](CCC(N)=O)NC(=O)[C@H](CCCNC(=N)N)NC(=O)[C@H](CC(C)C)NC(=O)[C@@H](NC(=O)[C@H](C)NC(=O)[C@H](CC(C)C)NC(=O)[C@H](CC(=O)O)NC(=O)CNC(=O)[C@@H](N)CCCNC(=N)N)[C@@H](C)O)C(=O)NCCOCCOCCOCCOCCOCCOCCOCCOCCOCCOCCOCCOCCC(=O)N[C@@H](CSC1CC(=O)N(CCC(=O)NCCCC[C@H](NC(=O)CCN2C(=O)CC(SC[C@H](NC(=O)CCOCCOCCOCCOCCOCCOCCOCCOCCOCCOCCOCCOCCNC(=O)[C@H](CC(C)C)NC(=O)[C@H](CCC(N)=O)NC(=O)[C@H](CCCNC(=N)N)NC(=O)[C@H](CC(C)C)NC(=O)[C@@H](NC(=O)[C@H](C)NC(=O)[C@H](CC(C)C)NC(=O)[C@H](CC(=O)O)NC(=O)CNC(=O)[C@@H](N)CCCNC(=N)N)[C@@H](C)O)C(N)=O)C2=O)C(=O)NCCC(=O)N[C@@H](CSC2CC(=O)N(CCNC(=O)CCC(C(=O)O)N3CCCN4CCN(CCCN(CC(=O)O)CC4)CC3)C2=O)C(N)=O)C1=O)C(N)=O (some centres unmarked) [^64Cu-D10, metal not drawn]
[1]; heart
  tissue uptake at 1 h: 1.26 ± 0.37 %ID/g
  tissue uptake at 4 h: 0.79 ± 0.27 %ID/g
  tissue uptake at 24 h: 0.42 ± 0.1 %ID/g
[1]; kidney
  tissue uptake at 1 h: 43.5 ± 1.8 %ID/g
  tissue uptake at 4 h: 39.3 ± 5.66 %ID/g
  tissue uptake at 24 h: 21.4 ± 0.57 %ID/g
[1]; liver
  tissue uptake at 1 h: 2 ± 0.1 %ID/g
  tissue uptake at 4 h: 1.56 ± 0.11 %ID/g
  tissue uptake at 24 h: 1.01 ± 0.14 %ID/g
[1]; lung
  tissue uptake at 1 h: 1.86 ± 0.2 %ID/g
  tissue uptake at 4 h: 0.99 ± 0.18 %ID/g
  tissue uptake at 24 h: 0.62 ± 0.23 %ID/g
[1]; muscle
  tissue uptake at 1 h: 0.8 ± 0.11 %ID/g
  tissue uptake at 4 h: 0.4 ± 0.03 %ID/g
  tissue uptake at 24 h: 0.27 ± 0.13 %ID/g
[2]; H2009 tumor bearing mice, 1 h, 4 h, 24 h p.i.
  increase of kidney uptake as compared to 64Cu-M10: ~6 fold
[2]; [5]
  Tumor uptake: 1.53 ± 0.15 %ID/g
  Tumor/Lung: 0.8 ± 0.25
[2]; [6]
  Tumor uptake: 1.2 ± 0.26 %ID/g
  Tumor/Lung: 1.2 ± 0.31
[2]; [7]
  Tumor uptake: 0.89 ± 0.26 %ID/g
  Tumor/Lung: 1.4 ± 0.34
[2]; H2009 tumor, all three time points (1 h, 4 h, 24 h p.i.)
  tumor uptake increase as compared to 64Cu-M10: ~3 fold
[3]; heart
  tissue uptake at 1 h: 1.41 ± 0.43 %ID/g
  tissue uptake at 4 h: 0.77 ± 0.09 %ID/g
  tissue uptake at 24 h: 0.47 ± 0.09 %ID/g
[3]; kidney
  tissue uptake at 1 h: 43.3 ± 5.4 %ID/g
  tissue uptake at 4 h: 50.1 ± 3.87 %ID/g
  tissue uptake at 24 h: 19.8 ± 2.38 %ID/g
[3]; liver
  tissue uptake at 1 h: 2.63 ± 0.92 %ID/g
  tissue uptake at 4 h: 2.3 ± 0.26 %ID/g
  tissue uptake at 24 h: 1.83 ± 0.15 %ID/g
[3]; lung
  tissue uptake at 1 h: 1.33 ± 0.3 %ID/g
  tissue uptake at 4 h: 0.77 ± 0.07 %ID/g
  tissue uptake at 24 h: 0.45 ± 0.17 %ID/g
[3]; muscle
  tissue uptake at 1 h: 0.75 ± 0.24 %ID/g
  tissue uptake at 4 h: 0.31 ± 0.06 %ID/g
  tissue uptake at 24 h: 0.33 ± 0.08 %ID/g
[4]; 1 h p.i.
  Tumor uptake: 0.86 ± 0.21 %ID/g
[4]; 4 h p.i.
  Tumor uptake: 0.52 ± 0.05 %ID/g
[4]; 24 h p.i.
  Tumor uptake: 0.39 ± 0.04 %ID/g

## N=C(N)NCCC[C@@H]1NC(=O)[C@H](CCCCNC(=O)CCC(C(=O)O)N2CCCN3CCN(CCCN(C(CCC(=O)NCCCC[C@@H]4NC(=O)[C@@H](Cc5ccc(O)cc5)NC(=O)[C@H](CC(=O)O)NC(=O)CNC(=O)[C@H](CCCNC(=N)N)NC4=O)C(=O)O)CC3)CC2)NC(=O)[C@@H](Cc2ccc(O)cc2)NC(=O)[C@H](CC(=O)O)NC(=O)CNC1=O (some centres unmarked) [^64Cu-CB-TE2A-(c(RGDyK))2, metal not drawn, reference compound]
[1]; heart
  tissue uptake at 1 h: 1.67 ± 0.13 %ID/g
  tissue uptake at 4 h: 0.58 ± 0.13 %ID/g
  tissue uptake at 24 h: 0.4 ± 0.12 %ID/g
[1]; kidney
  tissue uptake at 1 h: 3.43 ± 0.25 %ID/g
  tissue uptake at 4 h: 1.35 ± 0.54 %ID/g
  tissue uptake at 24 h: 0.93 ± 0.09 %ID/g
[1]; liver
  tissue uptake at 1 h: 2.56 ± 0.41 %ID/g
  tissue uptake at 4 h: 1.97 ± 0.19 %ID/g
  tissue uptake at 24 h: 1.65 ± 0.35 %ID/g
[1]; lung
  tissue uptake at 1 h: 0.7 ± 0.05 %ID/g
  tissue uptake at 4 h: 0.61 ± 0.17 %ID/g
  tissue uptake at 24 h: 0.39 ± 0.18 %ID/g
[1]; muscle
  tissue uptake at 1 h: 0.41 ± 0.04 %ID/g
  tissue uptake at 4 h: 0.26 ± 0.12 %ID/g
  tissue uptake at 24 h: 0.24 ± 0.08 %ID/g
[2]; [5]
  Tumor uptake: 1.58 ± 0.13 %ID/g
[2]; [6]
  Tumor uptake: 1.07 ± 0.21 %ID/g
[2]; [7]
  Tumor uptake: 0.7 %ID/g and 0.70 ± 0.29 %ID/g
[3]; heart
  tissue uptake at 1 h: 1.9 ± 0.72 %ID/g
  tissue uptake at 4 h: 0.54 ± 0.26 %ID/g
  tissue uptake at 24 h: 0.42 ± 0.05 %ID/g
[3]; kidney
  tissue uptake at 1 h: 4.33 ± 1 %ID/g
  tissue uptake at 4 h: 1.8 ± 0.57 %ID/g
  tissue uptake at 24 h: 1.2 ± 0.14 %ID/g
[3]; liver
  tissue uptake at 1 h: 2.13 ± 0.25 %ID/g
  tissue uptake at 4 h: 1.61 ± 0.41 %ID/g
  tissue uptake at 24 h: 2.05 ± 0.07 %ID/g
[3]; lung
  tissue uptake at 1 h: 0.68 ± 0.02 %ID/g
  tissue uptake at 4 h: 0.48 ± 0.06 %ID/g
  tissue uptake at 24 h: 0.3 ± 0.01 %ID/g
[3]; muscle
  tissue uptake at 1 h: 0.39 ± 0.06 %ID/g
  tissue uptake at 4 h: 0.31 ± 0.04 %ID/g
  tissue uptake at 24 h: 0.27 ± 0.03 %ID/g
[4]; 1 h p.i.
  Tumor uptake: 1.64 ± 0.20 %ID/g
[4]; 4 h p.i.
  Tumor uptake: 1.09 ± 0.24 %ID/g
[4]; 24 h p.i.
  Tumor uptake: 0.7 %ID/g and 0.72 ± 0.10 %ID/g
